Assays:
human Trop2 [1] = target: T1, human Trop2 (human, UniProt P09758 27-274, limits assumed); experiment: absorbance assay (Net absorbance, Abs 450) on 'Trop2-hFc'; one unprinted antibody concentration
T1 sequence (looked up): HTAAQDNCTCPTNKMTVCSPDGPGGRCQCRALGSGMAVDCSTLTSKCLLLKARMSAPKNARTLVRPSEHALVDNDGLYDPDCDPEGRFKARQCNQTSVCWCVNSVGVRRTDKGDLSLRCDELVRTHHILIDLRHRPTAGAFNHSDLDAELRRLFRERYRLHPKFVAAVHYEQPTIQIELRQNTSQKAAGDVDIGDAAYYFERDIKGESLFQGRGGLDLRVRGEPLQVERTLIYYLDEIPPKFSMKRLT

[2] = target: T2, Trop2 on cells (Trop2-positive SW480 cells; Trop2-expressing HEK293 cells) (UniProt P09758 27-323, limits assumed); experiment: receptor occupancy (Percentage) on DLD1/DLD1-2C7 cancer cells against ARB203 (nM); Trop2 arm of ARB203
T2 construct: whole, on cells
T2 sequence (looked up): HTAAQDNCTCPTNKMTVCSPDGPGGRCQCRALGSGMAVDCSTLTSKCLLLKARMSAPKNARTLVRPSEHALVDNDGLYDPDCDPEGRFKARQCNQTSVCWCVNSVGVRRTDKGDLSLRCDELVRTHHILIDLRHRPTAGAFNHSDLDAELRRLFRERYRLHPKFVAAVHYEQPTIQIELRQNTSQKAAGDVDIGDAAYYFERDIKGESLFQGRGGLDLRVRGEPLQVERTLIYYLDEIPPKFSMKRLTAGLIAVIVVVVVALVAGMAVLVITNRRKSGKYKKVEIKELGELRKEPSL

[3] = target: T2, Trop2 on cells (Trop2-positive SW480 …); experiment: receptor occupancy (%) on Trop2-positive SW480 cells against ARB203 (nM)
human Trop2 [4] = target: T1, human Trop2; experiment: Octet (BLI)
human CD3 [5] = target: human CD3 (human); experiment: receptor occupancy (Percentage) on PBMC against ARB203 (nM); the legend speaks of occupancy on T cells, the CD3 arm of ARB203
monkey CD3 = target: T3, monkey CD3 (monkey); experiment: Octet sensorgrams (nm against time), panel 'Cynomolgus CD3', association to about 900 s, dissociation to 1800 s
T3 chain: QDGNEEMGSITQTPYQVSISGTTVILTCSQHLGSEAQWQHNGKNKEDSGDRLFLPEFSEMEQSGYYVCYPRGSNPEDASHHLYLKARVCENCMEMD

human CD3 [6] = target: human CD3 (human); experiment: Octet sensorgrams (nm against time), panel 'Human CD3', association to about 900 s, dissociation to 1800 s
[7] = target: T4, PD1 expressed on HEK293F cells (UniProt Q15116 25-288, limits assumed); experiment: flow cytometry binding, receptor occupancy (0 to 1) on HEK293F cells expressing PD1 against Antibody (nM)
T4 construct: whole, on cells; also called HEK293F expressing PD1; HKE293F expressing PD1
T4 sequence (Q15116 25-288 limits assumed): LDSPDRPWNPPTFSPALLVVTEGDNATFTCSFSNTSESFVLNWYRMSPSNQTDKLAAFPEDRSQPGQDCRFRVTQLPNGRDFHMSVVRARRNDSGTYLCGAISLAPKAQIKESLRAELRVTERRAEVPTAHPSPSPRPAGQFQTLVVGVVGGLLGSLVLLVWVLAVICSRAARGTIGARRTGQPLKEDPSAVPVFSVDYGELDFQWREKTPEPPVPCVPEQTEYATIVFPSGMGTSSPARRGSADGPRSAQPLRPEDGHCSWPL

Sequence of human CD3 (human) (chain, as listed by the source): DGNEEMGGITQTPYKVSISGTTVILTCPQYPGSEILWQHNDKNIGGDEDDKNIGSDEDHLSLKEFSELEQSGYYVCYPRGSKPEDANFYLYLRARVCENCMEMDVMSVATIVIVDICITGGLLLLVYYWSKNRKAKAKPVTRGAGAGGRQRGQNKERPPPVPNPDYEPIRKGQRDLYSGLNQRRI

B1: ARB203-h3G8 v1 (bispecific antibody)
heavy: EVQLVESGGGLVQPGGSLRLSCAASGFTFSTYTMSWVRQTPAKGLVWVSTINSDGYNIYYSDSMKGRFTISRDNAKYTLYLQMNSLRAEDTAMYYCARCSYYSYDYFDYWGQGTLVTVSSASTKGPSVFPLAPSSKSTSGGTAALGCLVKDYFPEPVTVSWNSGALTSGVHTFPAVLQSSGLYSLSSVVTVPSSSLGTQTYICNVNHKPSNTKVDKRVEPKSCDKTHTCPPCPAPELLGGPSVFLFPPKPKDTLMISRTPEVTCVVVDVSQEDPEVQFNWYVDGVEVHNAKTKPREEQFNSTYRVVSVLTVLHQDWLNGKEYKCKVSNKGLPSSIEKTISKAKGQPREPQVYTLPPSQEEMTKNQVSLTCLVKGFYPSDIAVEWESNGQPENNYKTTPPVLDSDGSFFLYSRLTVDKSRWQEGNVFSCSVMHEALHNHYTQKSLSLSLGKPAGGGGSQVQLVQSGAEVKKPGASVKVSCKASGYTFTSYYMHWVRQAPGQGLEWMGWIYPENVNTNYAQKFQGRVTMTRDTSISTAYMELSRLRSDDTAVYYCARDSYGSYFFDYWGQGTLVTVSSGGGGSGGGGSGGGGSDIVMTQSPDSLAVSLGERATINCKSSQSLLNSRTRKNYLAWYQQKPGQPPKLLIYWASTRESGVPDRFSGSGSGTDFTLTISSLQAEDVAVYYCTQSFILRTFGQGTKVEIK
light: DIQMTQSPSSLSASVGDRVTITCRASENIDNYLAWYQQKQGKVPKLLIYAATNLADGMPSRFSGSGSGTDFTLTISSLQPEDVATYYCQHYYSNQLTFGQGTKLEIKRTVAAPSVFIFPPSDEQLKSGTASVVCLLNNFYPREAKVQWKVDNALQSGNSQESVTEQDSKDSTYSLSSTLTLSKADYEKHKVYACEVTHQGLSSPVTKSFNRGEC
notes: also called h8B5-h3G8 V1; h8B5-h3G8v1
- binding result (human Trop2 [1]): binds

B2: ARB203, bispecific antibody of anti-Trop2 (h8B5) and anti-CD3 (UCHT1) (bispecific antibody, human IgG1, kappa)
heavy: EVQLVESGGGLVQPGGSLRLSCAASGFTFSTYTMSWVRQTPAKGLVWVSTINSDGYNIYYSDSMKGRFTISRDNAKYTLYLQMNSLRAEDTAMYYCARCSYYSYDYFDYWGQGTLVTVSSASTKGPSVFPLAPSSKSTSGGTAALGCLVKDYFPEPVTVSWNSGALTSGVHTFPAVLQSSGLYSLSSVVTVPSSSLGTQTYICNVNHKPSNTKVDKRVEPKSCDKTHTCPPCPAPELLGGPSVFLFPPKPKDTLMISRTPEVTCVVVDVSQEDPEVQFNWYVDGVEVHNAKTKPREEQFNSTYRVVSVLTVLHQDWLNGKEYKCKVSNKGLPSSIEKTISKAKGQPREPQVYTLPPSQEEMTKNQVSLTCLVKGFYPSDIAVEWESNGQPENNYKTTPPVLDSDGSFFLYSRLTVDKSRWQEGNVFSCSVMHEALHNHYTQKSLSLSLGKPAGGGGSEVQLVESGGGLVQPGGSLRLSCAASGYSFTGYTMNWVRQAPGKGLEWVALINPYKGVSTYNQKFKDRFTISVDKSKNTAYLQMNSLRAEDTAVYYCARSGYYGDSDWYFDVWGQGTLVTVSSGGGGSGGGGSGGGGSDIQMTQSPSSLSASVGDRVTITCRASQDIRNYLNWYQQKPGKAPKLLIYYTSRLESGVPSRFSGSGSGTDYTLTISSLQPEDFATYYCQQGNTLPWTFGQGTKVEIK
light: DIQMTQSPSSLSASVGDRVTITCRASENIDNYLAWYQQKQGKVPKLLIYAATNLADGMPSRFSGSGSGTDFTLTISSLQPEDVATYYCQHYYSNQLTFGQGTKLEIKRTVAAPSVFIFPPSDEQLKSGTASVVCLLNNFYPREAKVQWKVDNALQSGNSQESVTEQDSKDSTYSLSSTLTLSKADYEKHKVYACEVTHQGLSSPVTKSFNRGEC
notes: IgG4 Fc with IgG1 hinge; Bivalent Fab to Trop2 and bivalent scFv to CD3 at the heavy chain C-terminus
- EC50 (read off the curve) [2]: ~0.4 nM
- EC50 [3]: 0.155 nM
- Kd (human Trop2 [4]): ≤ 0.001 nM
- EC50 (human CD3 [5]): 20.9 nM

B3: h8B5-h3G8v2, bispecific anti-Trop2 (h8B5) / anti-CD3 (h3G8 scFv V2, VL-VH with 3xGS linker) (bispecific antibody, human IgG1, kappa)
heavy: EVQLVESGGGLVQPGGSLRLSCAASGFTFSTYTMSWVRQTPAKGLVWVSTINSDGYNIYYSDSMKGRFTISRDNAKYTLYLQMNSLRAEDTAMYYCARCSYYSYDYFDYWGQGTLVTVSSASTKGPSVFPLAPSSKSTSGGTAALGCLVKDYFPEPVTVSWNSGALTSGVHTFPAVLQSSGLYSLSSVVTVPSSSLGTQTYICNVNHKPSNTKVDKRVEPKSCDKTHTCPPCPAPELLGGPSVFLFPPKPKDTLMISRTPEVTCVVVDVSQEDPEVQFNWYVDGVEVHNAKTKPREEQFNSTYRVVSVLTVLHQDWLNGKEYKCKVSNKGLPSSIEKTISKAKGQPREPQVYTLPPSQEEMTKNQVSLTCLVKGFYPSDIAVEWESNGQPENNYKTTPPVLDSDGSFFLYSRLTVDKSRWQEGNVFSCSVMHEALHNHYTQKSLSLSLGKPAGGGGSDIVMTQSPDSLAVSLGERATINCKSSQSLLNSRTRKNYLAWYQQKPGQPPKLLIYWASTRESGVPDRFSGSGSGTDFTLTISSLQAEDVAVYYCTQSFILRTFGQGTKVEIKGGGGSGGGGSGGGGSQVQLVQSGAEVKKPGASVKVSCKASGYTFTSYYMHWVRQAPGQGLEWMGWIYPENVNTNYAQKFQGRVTMTRDTSISTAYMELSRLRSDDTAVYYCARDSYGSYFFDYWGQGTLVTVSS
light: DIQMTQSPSSLSASVGDRVTITCRASENIDNYLAWYQQKQGKVPKLLIYAATNLADGMPSRFSGSGSGTDFTLTISSLQPEDVATYYCQHYYSNQLTFGQGTKLEIKRTVAAPSVFIFPPSDEQLKSGTASVVCLLNNFYPREAKVQWKVDNALQSGNSQESVTEQDSKDSTYSLSSTLTLSKADYEKHKVYACEVTHQGLSSPVTKSFNRGEC
notes: IgG4 Fc with IgG1 hinge, scFv at the heavy chain C-terminus
- Kd (monkey CD3): 0.802 nM
- Kd (human CD3 [6]): 3.7 nM

B4: ARB204, CDH17-PD1 bispecific antibody (anti-CDH17 10C12 Fab, anti-PD1 1C8 scFv) (bispecific antibody, human IgG1, kappa)
heavy: EVQLVESGGGLVQPGGSLRLSCAASGFTFSSYAMSWVRQTPGKGLEWVAVIDSNGGSTYYPDTVKDRFTISRDNSKNTLYLQMNSLRAEDTAVYYCSSYTNLGAYWGQGTLVTVSAASTKGPSVFPLAPSSKSTSGGTAALGCLVKDYFPEPVTVSWNSGALTSGVHTFPAVLQSSGLYSLSSVVTVPSSSLGTQTYICNVNHKPSNTKVDKRVEPKSCDKTHTCPPCPAPELLGGPSVFLFPPKPKDTLMISRTPEVTCVVVDVSQEDPEVQFNWYVDGVEVHNAKTKPREEQFNSTYRVVSVLTVLHQDWLNGKEYKCKVSNKGLPSSIEKTISKAKGQPREPQVYTLPPSQEEMTKNQVSLTCLVKGFYPSDIAVEWESNGQPENNYKTTPPVLDSDGSFFLYSRLTVDKSRWQEGNVFSCSVMHEALHNHYTQKSLSLSLGKPAGGGGSEVQLVESGGGLVQPGGSLRLSCAASGFTFSRSTMSWVRQAPGKGLEWVATISGGGLNTYFPDSVKGRFTISRDNSKNTLYLQMNSLRAEDTAVYYCTRNSNSYYFALDYWGQGTLVTVSSGGGGSGGGGSGGGGSEIVLTQSPATLSLSPGERATLSCRASESVDNSGVSFMNWYQQKPGQAPRLLIYIASNQVSGIPARFSGSGSGTDFTLTISSLEPEDFAVYYCQQIKEVPWTFGGGTKVEIK
light: DIQMTQSPSSLSASVGDRVTITCRASQDISGYLNWLQQKPGGAIKRLIYTTSTLDSGVPKRFSGSGSGTDFTLTISSLQSEDFATYYCLQYASSPFTFGGGTKVEIKRTVAAPSVFIFPPSDEQLKSGTASVVCLLNNFYPREAKVQWKVDNALQSGNSQESVTEQDSKDSTYSLSSTLTLSKADYEKHKVYACEVTHQGLSSPVTKSFNRGEC
notes: IgG4 Fc with IgG1 hinge, bivalent to each target
- EC50 [7]: 0.217 nM
